Usually Kd stands for the free concentration of one partner at which half of the binding sites on the other are occupied at equilibrium, for simple one-to-one binding. The low end stands for higher affinity, the high end for lower affinity.

Assay in all cases: ITC
Test [1] deals with T1, Sc eIF4E (residues T25–L213), His6 tag removed (Saccharomyces cerevisiae, UniProt P07260 25-213).
T1 sequence (looked up): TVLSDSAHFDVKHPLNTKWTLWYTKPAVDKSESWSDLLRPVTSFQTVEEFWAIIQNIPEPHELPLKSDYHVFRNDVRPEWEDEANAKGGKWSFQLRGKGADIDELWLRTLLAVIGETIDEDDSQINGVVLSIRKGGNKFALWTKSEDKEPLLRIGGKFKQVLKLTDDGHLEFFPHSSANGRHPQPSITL

Test [2] has as its target T2, Sc eIF4E Δ34 (residues V35–L213), His6 tag removed (Saccharomyces cerevisiae, UniProt P07260 35-213).
T2 sequence (looked up): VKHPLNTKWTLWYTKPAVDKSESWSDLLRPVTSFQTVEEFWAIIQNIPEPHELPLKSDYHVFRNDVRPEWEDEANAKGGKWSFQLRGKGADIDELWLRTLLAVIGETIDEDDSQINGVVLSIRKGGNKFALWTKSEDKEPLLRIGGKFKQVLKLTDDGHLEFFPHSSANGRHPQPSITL

For test [3], the target named is Sc eIF4G (residues V448–N500; C+L+NC)-GB1 (Saccharomyces cerevisiae, UniProt P39935 448-500).

B1: Sc Eap1p (T91–A122; N_(short)+C)-GB1 (domain or fragment, Saccharomyces cerevisiae, UniProt P36041 91-122, looked up)
chain: TDPITNYKPMDLQYKTYAYSMNELYHLKPSLA
On to B1, for which the Kd in test [1] was determined as 12.9 ± 0.9 nM; in test [2] it was 8.8 ± 0.5 nM.

B2: Sc Eap1p (residues K80–A122; N+C peptide)-GB1 (domain or fragment, Saccharomyces cerevisiae, UniProt P36041 80-122, looked up)
chain: KKTAMLNFSSLTDPITNYKPMDLQYKTYAYSMNELYHLKPSLA
In the case of B2, in test [1], binding was characterised by a dissociation constant (Kd) of 8 ± 4 nM.

B3: Sc Eap1p canonical motif (C)-GB1 (domain or fragment)
chain: GPHMDLQYKTYAYSMNELYHLKPSLA
On to B3, for which the Kd in test [1] is 3400 ± 300 nM.

B4: Sc Eap1p L+NC fragment (residues S123–G150)-GB1 (domain or fragment, Saccharomyces cerevisiae, UniProt P36041 123-150, looked up)
chain: SASYEEDPLISELVRSLPKRKFWRLRMG
The molecule B4 came in with a Kd in test [1] of 1000 ± 100 nM.

B5: Sc eIF4E II-AA lateral surface mutant, His6 tag removed (ITC) (domain or fragment)
chain: GPHMTVLSDSAHFDVKHPLNTKWTLWYTKPAVDKSESWSDLLRPVTSFQTVEEFWAAIQNAPEPHELPLKSDYHVFRNDVRPEWEDEANAKGGKWSFQLRGKGADIDELWLRTLLAVIGETIDEDDSQINGVVLSIRKGGNKFALWTKSEDKEPLLRIGGKFKQVLKLTDDGHLEFFPHSSANGRHPQPSITL
In test [3], B5 had a Kd of 1020 ± 90 nM.

For the origin of these results see paper PMC6061780 (Nucleic Acids Research, 2018).
